According to patent US20230399394A1 (SUNSHINE GUOJIAN PHARMACEUTICAL SHANGHAI, published 2023):
One block for each binder: values may come before it.

Assays:
Human IL-33-his = target: T1, Human IL-33-his (human, UniProt O95760 112-270, biotinylated with EZ-Link NHS-Biotin where used as IL-33-his-biotin); experiment: ELISA as Example 9, IL-33-his-biotin on streptavidin plate
T1 construct: Used plain (SPR, cell assays) and biotinylated (ELISA); also called IL-33-his-biotin
T1 sequence: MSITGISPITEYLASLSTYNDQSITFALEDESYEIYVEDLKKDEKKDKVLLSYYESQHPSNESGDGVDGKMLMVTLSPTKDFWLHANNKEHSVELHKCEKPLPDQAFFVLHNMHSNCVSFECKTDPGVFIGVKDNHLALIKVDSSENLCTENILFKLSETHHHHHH

[1] = target: T2, IL-33 mutant protein D65A (human, UniProt O95760 112-270); experiment: ELISA by the method of Example 9 with the IL-33 mutant protein on the plate, 874F7-Hu1 in serial dilution, HRP anti-human IgG Fc, absorbance 450 nm
T2 construct: Prokaryotic expression
T2 chain: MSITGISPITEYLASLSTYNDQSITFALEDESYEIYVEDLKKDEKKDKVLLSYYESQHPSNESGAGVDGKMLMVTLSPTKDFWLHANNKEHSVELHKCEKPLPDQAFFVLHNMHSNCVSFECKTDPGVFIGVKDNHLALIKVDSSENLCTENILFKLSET

Pep2 = target: T3, Pep2 (human, N-terminal biotin); experiment: ELISA, biotinylated peptide on streptavidin plate
T3 construct: Synthetic 20-mer of human IL-33
T3 peptide: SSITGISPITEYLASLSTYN
Procedure: (§1) To determine the binding activity of antibody to each polypeptide fragment, the ELISA plate was pre-coated by biotin-avidin (SA) which was diluted in coating solution (50 mM carbonate coating buffer, pH 9.6) to 2 μg/ml at 4° C. overnight. The plate was washed with PBST for 3 times, and then blocked with 2% BSA prepared in PBS at room temperature for 2 h with 200 μL/well. The plate was washed once with PBST, and 864F3 and 874F7 with final concentrations of 10 μg/mL were added at 100 μL/well, respectively, and the plate was incubated at room temperature for 1 h. The plate was washed with PBST for 3 times, and the goat anti-mouse IgG labeled by HRP was added and placed at 37° C. for 30 min. After washing the plate with PBST for 3 times, the plate was patted on the absorbent paper to remove residual droplets as far as possible. 100 μl TMB developing solution was added to each well, and the plate was placed at room temperature (20±5° C.) for 5 minutes away from light; 50 μl 2M H₂SO₄ terminating solution was added to each well to terminate the substrate reaction. OD values were read at 450 nm on the microplate reader to analyze the binding ability of the antibody to each polypeptide fragment. The experimental results are shown in […]

Pep10 = target: T4, Pep10 (human, N-terminal biotin); experiment: ELISA, biotinylated peptide on streptavidin plate
T4 construct: Synthetic 20-mer of human IL-33
T4 peptide: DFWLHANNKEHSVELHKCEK
Procedure: as §1

Pep3 = target: T5, Pep3 (human, N-terminal biotin); experiment: ELISA, biotinylated peptide on streptavidin plate
T5 construct: Synthetic 20-mer of human IL-33
T5 peptide: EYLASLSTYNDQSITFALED
Procedure: as §1

Pep12 = target: T6, Pep12 (human, N-terminal biotin); experiment: ELISA, biotinylated peptide on streptavidin plate
T6 construct: Synthetic 20-mer of human IL-33
T6 peptide: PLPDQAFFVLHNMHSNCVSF
Procedure: as §1

Pep7 = target: T7, Pep7 (human, N-terminal biotin); experiment: ELISA, biotinylated peptide on streptavidin plate
T7 construct: Synthetic 20-mer of human IL-33
T7 peptide: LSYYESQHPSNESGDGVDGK
Procedure: as §1

Pep11 = target: T8, Pep11 (human, N-terminal biotin); experiment: ELISA, biotinylated peptide on streptavidin plate
T8 construct: Synthetic 20-mer of human IL-33
T8 peptide: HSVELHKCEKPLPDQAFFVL
Procedure: as §1

Pep15 = target: T9, Pep15 (human, N-terminal biotin); experiment: ELISA, biotinylated peptide on streptavidin plate
T9 construct: Synthetic 20-mer of human IL-33
T9 peptide: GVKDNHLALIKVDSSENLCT
Procedure: as §1

Pep4 = target: T10, Pep4 (human, N-terminal biotin); experiment: ELISA, biotinylated peptide on streptavidin plate
T10 construct: Synthetic 20-mer of human IL-33
T10 peptide: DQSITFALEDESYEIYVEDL
Procedure: as §1

Pep1 = target: T11, Pep1 (human, N-terminal biotin); experiment: ELISA, biotinylated peptide on streptavidin plate
T11 construct: Synthetic 20-mer of human IL-33
T11 peptide: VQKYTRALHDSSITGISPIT
Procedure: as §1

Pep9 = target: T12, Pep9 (human, N-terminal biotin); experiment: ELISA, biotinylated peptide on streptavidin plate
T12 construct: Synthetic 20-mer of human IL-33
T12 peptide: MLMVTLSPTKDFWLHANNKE
Procedure: as §1

Pep8 = target: T13, Pep8 (human, N-terminal biotin); experiment: ELISA, biotinylated peptide on streptavidin plate
T13 construct: Synthetic 20-mer of human IL-33
T13 peptide: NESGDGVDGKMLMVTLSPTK
Procedure: as §1

Pep14 = target: T14, Pep14 (human, N-terminal biotin); experiment: ELISA, biotinylated peptide on streptavidin plate
T14 construct: Synthetic 20-mer of human IL-33
T14 peptide: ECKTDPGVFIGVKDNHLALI
Procedure: as §1

Pep16 = target: T15, Pep16 (human, N-terminal biotin); experiment: ELISA, biotinylated peptide on streptavidin plate
T15 construct: Synthetic 20-mer of human IL-33
T15 peptide: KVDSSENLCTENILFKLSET
Procedure: as §1

Pep5 = target: T16, Pep5 (human, N-terminal biotin); experiment: ELISA, biotinylated peptide on streptavidin plate
T16 construct: Synthetic 20-mer of human IL-33
T16 peptide: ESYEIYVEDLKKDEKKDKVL
Procedure: as §1

Pep13 = target: T17, Pep13 (human, N-terminal biotin); experiment: ELISA, biotinylated peptide on streptavidin plate
T17 construct: Synthetic 20-mer of human IL-33
T17 peptide: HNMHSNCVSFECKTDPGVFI
Procedure: as §1

EC50 (Human IL-33-his): 0.129 nM | EC50 (read off the curve) [1]: ~2 nM
B1: 874F7-Hu1 (antibody, human IgG4 S228P, kappa)
heavy: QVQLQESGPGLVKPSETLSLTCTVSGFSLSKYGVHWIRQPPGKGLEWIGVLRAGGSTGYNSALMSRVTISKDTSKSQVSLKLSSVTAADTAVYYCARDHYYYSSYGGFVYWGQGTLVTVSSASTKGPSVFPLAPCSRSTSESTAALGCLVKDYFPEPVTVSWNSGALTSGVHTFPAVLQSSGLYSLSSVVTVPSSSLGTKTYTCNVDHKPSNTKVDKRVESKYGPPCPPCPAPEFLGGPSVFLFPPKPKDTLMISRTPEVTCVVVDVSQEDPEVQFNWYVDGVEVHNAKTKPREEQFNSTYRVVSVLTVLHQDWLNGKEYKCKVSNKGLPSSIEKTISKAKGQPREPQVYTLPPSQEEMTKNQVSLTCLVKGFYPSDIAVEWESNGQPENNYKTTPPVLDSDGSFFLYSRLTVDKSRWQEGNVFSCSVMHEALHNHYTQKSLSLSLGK
light: DIQMTQSPSSVSASVGDRVTITCLASQTIGAWLAWYQQKPGKSPKLLIYAATRLADGVPSRFSGSGSGTDFTLTISSLQPEDFATYYCQQLDSSPYTFGQGTKVEIKRTVAAPSVFIFPPSDEQLKSGTASVVCLLNNFYPREAKVQWKVDNALQSGNSQESVTEQDSKDSTYSLSSTLTLSKADYEKHKVYACEVTHQGLSSPVTKSFNRGEC
notes: also called 874F7-Hul; humanized antibody 874F7-Hu1

binding result (Pep2): no binding (tested: 10 µg/mL) | binding result (Pep10): no binding (tested: 10 µg/mL) | binding result (Pep3): no binding (tested: 10 µg/mL) | binding result (Pep12): no binding (tested: 10 µg/mL) | binding result (Pep7): no binding (tested: 10 µg/mL) | binding result (Pep11): no binding (tested: 10 µg/mL) | binding result (Pep15): no binding (tested: 10 µg/mL) | binding result (Pep4): no binding (tested: 10 µg/mL) | binding result (Pep1): no binding (tested: 10 µg/mL) | binding result (Pep9): no binding (tested: 10 µg/mL) | binding result (Pep8): no binding (tested: 10 µg/mL) | binding result (Pep14): no binding (tested: 10 µg/mL) | binding result (Pep16): no binding (tested: 10 µg/mL) | binding result (Pep5): no binding (tested: 10 µg/mL) | binding result (Pep13): no binding (tested: 10 µg/mL)
B2: 874F7 (antibody, V domains shown)
VH: QVQLKESGPGLVAPSHSLSITCNVSGFSLSKYGVHWIRQIPGRGLDWLGVLRAGGSTGYNSALMSRLSISKDSSKSQVFLKMNDLRTDDTAVYFCVRDHYYYSSYGGFVYWGQGTLVTVSA
VL: DIQMTQSPASQSASLGESVTITCLASQTIGAWLAWYRQQPGKSPQLLIYAATRLADGVPSRFSGSGSGTEFSFKINNLQAEDFVSYYCQQLDSSPYTFGGGTRLEM
notes: Murine hybridoma antibody purified on Protein G; also called murine antibody 874F7
